Source: patent US20150218248A1

Target: HLA-A2 molecule
Assay: HLA class I stabilization assay, RMA-S/A2 cells, peptide 10 µg/ml, flow cytometry with BB7.2

HLA binding capability (%) (MFI increase)	Binder
31.2	LIMQLMPFGCL [T790M-7]
267	MQLMPFGCLL [T790M-5]
69.3	IMQLMPFGCLL [T790M-8]
